Results on 11 molecules are retold here after patent US20160361434A1 (COVALAB, published 2016).

This test has as its target T1, Recombinant microbial transglutaminase (mTG) (Streptoverticillium mobaraense, UniProt P81453 77-407).
T1 sequence (looked up): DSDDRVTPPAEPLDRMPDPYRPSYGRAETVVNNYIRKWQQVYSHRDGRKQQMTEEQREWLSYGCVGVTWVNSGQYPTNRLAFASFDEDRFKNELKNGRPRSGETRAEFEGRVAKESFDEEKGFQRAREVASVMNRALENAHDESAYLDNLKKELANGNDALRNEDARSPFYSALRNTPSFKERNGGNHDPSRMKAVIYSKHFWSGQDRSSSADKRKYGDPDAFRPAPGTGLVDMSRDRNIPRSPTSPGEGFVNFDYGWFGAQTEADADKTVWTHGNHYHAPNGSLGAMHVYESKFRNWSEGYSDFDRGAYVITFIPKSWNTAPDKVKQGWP
In words: cell-based or functional assay.

Where no end group is shown, it is not given here. Where only a bound is given, the exact number is not on record here.

Take FWIQE (also: biotin tag, position not given here) [bFE5Q4]: the “Kmapp” value was determined as 5 µM.
The result for WPDVYSQH (also: biotin tag, position not given here) [bWH8Q7] reads 11.4 µM.
As for PLVQSH (also: biotin tag, position not given here) [bPH6Q4], the “Kmapp” value was 14.8 µM.
The result for YEAQK (also: biotinylated, position not given here) [BEST2] reads 0.114 µM; that for YEAQR (also: biotinylated, position not given here) [BEST3], 0.08 µM.
The same measure for SPLKHQEY (also: biotin tag, position not given here) [bSY8Q6]: over 50 µM; for HDLMWPDVYSQH (also: biotin tag, position not given here) [bHH12Q11]: 3.08 µM.
The result for DVYSQH (also: biotin tag, position not given here) [bDH6Q5] reads 33.1 µM; that for LLTLPSVQEQN (also: biotin tag, position not given here) [bLN11Q8-10], 172 µM.
Turning to YEIQR (also: biotinylated, position not given here) [BEST1], the “Kmapp” value amounted to 0.086 µM.
The same measure for WPAQR (also: biotinylated, position not given here) [BEST4]: 0.225 µM.
